Source: the DeepSol protein solubility set

Assay: soluble on expression in E. coli; label from the status in PepcDB or PDB records

Sequence	soluble on expression in E. coli
MGSDKIHHHHHHMKQVDYIIVGQGLAGSCLVQSLWHEKQSVVVIASSERKASSTVAAGLYNPITGKKMLLTWNAAVLFPYLDLFYRSAERELDTTILYPKAIVRPFTDIQAQNDFWAKSTPEIAAFAEPEQNIEKYDPYIWFPYGGLITKHSGYVDVQAFLGAIKQKLVEKDQYIEETFDHAALQFSTNSVAYKGIQAKKIIFAEGFHNTRNPIFNWVPVKGMKGDVLTLDIEAYALKEVVNKHFFIIPLPNGKFRMGSSYIREFEDDAPTEGGLKEITEGAHTILKKPFVVIEQKAGIRPVVPDHRPIIGEHPEQPLALIFNGLGTKGVSIAPYASKTLTNFLLLNQEIDQSMSVNRFNYLYFKQKNN	not soluble
MQRKLATWAATDPSLRIQRLLRLITQPEWLAEAARITLSSKGAHTPGVDGVNKTMLQARLAVELQILRDELLSGHYQPLPARRVYIPKSNGKLRPLGIPALRDRIVQRAMLMAMEPIWESDFHTLSYGFRPERSVHHAIRTVKLQLTDCGETRGRWVIEGDLSSYFDTVHHRLLMKAVRRRISDARFMTLLWKTIKAGHIDVGLFRAASEGVPQGGVISPLLSNIMLNEFDQYLHERYLSGKARKDRWYWNNSIQRGRSTAVRENWQWKPAVAYCRYADDFVLIVKGTKAQVEAIREECRGVLEGSLKLRLNMDKTKIPHVNDGFIFLGHRLIRKRSRYGEMRVVSTIPQEKARNFAASLTALLWKVRISGEILLGLEHHHHHH	not soluble
LALHKVIMVGSGGVGKSALTLQFMYDEFVEDYEPTKADSYRKKVVLDGEEVQIDILDTAGLEDYAAIRDNYFRSGEGFLLVFSITEHESFTATAEFREQILRVKAEEDKIPLLVVGNKSDLEERRQVPVEEARSKAEEWGVQYVETSAKTRANVDKVFFDLMREIRTKKMSENK	soluble
MSITQYLTEEHRKCDQIYAEVEKAVNEGNWEKAKELFKEFKEKTLLHFKKEEEVLFPEFEQRTGIVMGPTQVMRMEHDQARELLERMEKALEEKNKDEFLSLGESLMILIQQHNMKEEQILYPMSDQNLNAEKMVSKMAELGEV	not soluble
MAYTEEQIENIKTRILTALEEVIDPELGIDIVNLGLIYEIRFDGDTGQTEIDMTLTTMGCPLADLLTDQIYDAMIEVPEVTDTEVKLVWYPAWTVEKMSRYARIALGIK	not soluble
MGSDKIHHHHHHMADRASEAELIKLPVSKLTRGMFVAAIENNGKVAVANAGQIKSRETIAKLVKSGIHHVWVDAERSSDESGLKPKSAQGSAAPAAGAVRPSRANRDLRQTQAKKLLHEAKELIRKVLSETFEGKAIEVKPFEALADNMIESIMLDDDALKCVSALRDKDAYLLEHSVNVAFLLVTFGKYLKLDRETLKQMAVGGVLHDIGKIKVDNKILHKPGKLTPEEFEHMKLHQFYAMDIMSEASALSQISKDVCLMHHEKLDGRGYPRGLKGDEIPLHGRMSCIVDIFDALTATRCYKEAMSPAAAFKILLSLTPFHLDTDLVYEFIRCIGVYPVGSLVELSDGRVGIVWESKDRDALSPVVKCFYSLKHKRYTEVNFVDLLKSDLNIERGVSPSSLDVDPKPFY	not soluble
MGSDKIHHHHHHMTAFNPIAIIPHYNHSATVGSVAEQLNQLGLPVLIVDDGSSLEHKAVIEQFPQNEQLSILFCEINGGKGAAFKAGLKQTQKLGFSHAIQVDADGQHNIIDVKKMLEQAEKSPNAIVCGKPIYGKDAPKSRLYGRKITDFWNAINTLSFDIKDGMCGFRIYPIAQIMPILAQEQIGGGMDFDTEILIHSYWQKIPLIWVDTPVKYEKDGISHFRGWADNWLISKMHARLFFRMLKRLFTGKIR	not soluble
MLYALLLLFGGVSTVSSLRVAVVGEGVIGLSTATAILDLAEKRNIPAPEIHIFHHKPFEKILSRHIAGLFRIDSGSEIDRKYGYDTFEKLATLWREYGGLSGVQLVSGHILSDSKTKLDSQRESYGSLVYNYRDLAEPELFGPTSLFDLPRNTTTRGIHYTAYTSEGLRFCPFLKKELMTKGVRFTQRRIGNLEELGAEFDVVVNSAGLLGGVLAGDDAGNMKPIRGVLIRVDAPWQKHFLYRDFSTITIPVIDHVYMGTVKQEGAFGPNNVTSADIQDITSRYVALQPSFKRVHMLSSFVGYRPGRKQVRVEKQIRETNGSKKFTVVHNYGHSGNGFTLGYGSAVHAAHIVLDLPLDAYHGLVPEPLPINATISEWVKYLDD	not soluble
MGSYLSVPAYFTSRDLFRCSECQDSLTNWYYEKDGKLYCPKDYWGKFGEFCHGCSLLMTGPFMVAGEFKYHPECFACMSCKVIIEDGDAYALVQHATLYCGKCHNEVVLAPMFERLSTESVQEQLPYSVTLISMPATTEGRRGFSVSVESACSNYATTVQVKEVNRMHISPNNRNAIHPGDRILEINGTPVRTLRVEEVEDAISQTSQTLQLLIEHDPVSQRLDQLRLEARLAPHMQNAGHPHALSTLDTKENLEGTLRRRSLRRSNSISKSPGPSSPKEPLLFSRDISRSESLRCSSSYSQQIFRPCDLIHGEVLGKGFFGQAIKVTHKATGKVMVMKELIRCDEETQKTFLTEVKVMRSLDHPNVLKFIGVLYKDKKLNLLTEYIEGGTLKDFLRSMDPFPWQQKVRFAKGIASGMAYLHSMCIIHRDLNSHNCLIKLDKTVVVADFGLSRLIVEERKRAPMEKATTKKRTLRKNDRKKRYTVVGNPYWMAPEMLNGKSYDETVDIFSFGIVLCEIIGQVYADPDCLPRTLDFGLNVKLFWEKFVPTDCPPAFFPLAAICCRLEPESRAPPGAAGEGPGCADDEGPVRRQGKVTIKYDPKELRKHLNLEEWILEQLTRLYDCQEEEISELEIDVDELLDMESDDAWASRVKELLVDCYKPTEAFISGLLDKIRAMQKLSTPQKK	soluble
MVDVVMAPCSPVECRTAVVIDVLRATSTIVTALSNGASGVIPVKTIEEALEKKKEGVLICGERNAQKPKGFNLGNSPLEYRKEKISGKTIVLTTTNGTQVIEKIRSEEIIAASFLNLSAVVEYLKSKEDILLVCAGTNGRFSLEDFLLAGAIVKRLKRNDLGDGAHAAERYFESVENTREEIKKHSSHAKRLISLGFENDIEFCTTEDLFKTVPALVNGVFILKEFP	soluble
MAKAFEEQRRSPDLEALPFEDRIGLLVDREAAERDTRRLTTRLKIAALRQTACVEDVDLRTPRGIDRAVFAKLVEGRWIDRHENLLVTGATGLGKSWLACALGHKACRDNRSVLYHRVPRLFEALALARGDGRYARLLKSLGRAQLLILDDWGLSVLTAAERRDLLEILEDRHGRASTIVTSQLPWTPGMEPLGTPRSPTPFSIASSTTPTASSSPEKACENAAPKPSPLTANQNTDSISHRPAAALEHHHHHH	not soluble
MYGKLLICATASINVININHYIVELKQHFDEVNILFSPSSKNFINTDVLKLFCDNLYDEIKDPLLNHINIVENHEYILVLPASANTINKIANGICDNLLTTVCLTGYQKLFIFPNMNIRMWGNPFLQKNIDLLKNNDVKVYSPDMNKSFEISSGRYKNNITMPNIENVLNFVLNNEKRPLD	soluble
MSLETYIHEVVAPKLVGRDPLEIDRISKDLTGYLGFRSTGAEMRGNSAVDIGLWDLFGKATNLPIAQLLGGFSRREIRTYNTCAGNTYMRDAKGQQTANYGIGGPRRDYDDLNGFLERADELAEDLLSEGITAMKIWPFDIAAEKSGGQYISGPDLRKALEPFEKIRKRVGDRIDIMVEFHSMWQLTPAIQIARALEPYATFWHEDPIKMDSLSSLKRYAAASRAPLCASETLATRWAFRDLMETDAAGVVMLDLSWCGGISEAKKISTMAEAWHLPVAPHDCTGPVVLAASTHLSLNAPNALVQESVRAYYKTWYADLTTQLPTVTNGMITIPPGAGHGVDLAPDLDRKFEVSRRSSQIEDEGHHHHHH	not soluble
MLSTVFRRTMATGRHFIAVCQMTSDNDLEKNFQAAKNMIERAGEKKCEMVFLPECFDFIGLNKNEQIDLAMATDCEYMEKYRELARKHNIWLSLGGLHHKDPSDAAHPWNTHLIIDSDGVTRAEYNKLHLFDLEIPGKVRLMESEFSKAGTEMIPPVDTPIGRLGLSICYDVRFPELSLWNRKRGAQLLSFPSAFTLNTGLAHWETLLRARAIENQCYVVAAAQTGAHNPKRQSYGHSMVVDPWGAVVAQCSERVDMCFAEIDLSYVDTLREMQPVFSHRRSDLYTLHINEKSSETGGLKFARFNIPADHIFYSTPHSFVFVNLKPVTDGHVLVSPKRVVPRLTDLTDAETADLFIVAKKVQAMLEKHHNVTSTTICVQDGKDAGQTVPHVHIHILPRRAGDFGDNEIYQKLASHDKEPERKPRSNEQMAEEAVVYRNLM	soluble
MGSDKIHHHHHHMSGPAGLIVRMDGFNLPAGYLASDEARAISFAYDDRYIAAGGPPLSLSMPLEQVSFGDVTARAFFDNLLPENDQMQRVMDREGLARDDIVGLLSHLGADCSGAISCLPIGADPIKVPGVLSEDYELLAPGAIAEIARSLAERQRLPDTITDPSPVAGVQRKIALTHTPQGFAKPRPGRKVPTTHILKVPETRLRRDARLEAAAARLASALGLDVSIPEAIVIDGVDALLITRFDRVVRDGVVYRLHQEDFAQAMGLPATLKYQRNGAPGRQFDAQAIARVLDQTEAPALSRTAFLSATIFNLLIGNTDNHAKNHGLLYRQGRAPILAPLYDLLPSRMNLDFNDQLSFNIGAADHPDAITFDDMMAFFEVFGMRRAAAARFIENVIKPMIEALERATLGLAGERLKDMDDLIGRETEQLVEVLGLDVAVRERDYYPKVRHALAPS	not soluble
MKRVLVLGATGRTGNFVIKELSKYKSIQLIAGLRSQKDKERLPKINAAIETVVIDIADVCSLRKALTDSDIVVQAIRLRGDISENALIQLDQRIHQAFNPSRKTHLVTVGGAGALKLEANQRFWENEYFPRQTLPRGIAHARLRDYLEKSFFNHTWTYLIPPPVYVAEGARTGSYNRYSSAQKEDFFLSKSISYADFALAIGNAVMEEWQGVYLIAEKELEHHHHHH	not soluble
MKTEKDKMLAGEMYIADDEELVADRVEAKRLTRLYNEAVETGDERRFTLLNQLLGSSADGKAQINPDFRCDYGYNIHVGKSFFANFNCVILDVCEVRIGDHCMFAPGVHIYTATHPLHPVERNSGKEYGKPVKIGNNVWVGGGAIINPGVSIGDNAVIASGAVVTKDVPNNVVVGGNPAKVIKTIEE	not soluble
MGSDKIHHHHHHAELAELFEVSVRTIYRDIETINRAGIPIVTSQGSGGGIGIMETYRLEREWLKEEELFAIASALQSVSSMYEPVSHSTAYQKIKHLIPEQSTQAFKHQTEKWFIDMTAWGHTEDQKTLREKISAAIDRLLTISFTYTSASGETLLRETEPYTLVCKAGHWYLYAYCLVRNDFRFFKLNRMKDLAILHQTFIRKDIQLDTLPWDKSWYQKDRLTELVILVQPSARQRIGEWFGYDVLHCCEEDEICQAVISLPEDQWLIGFLLQFGKDIEVLQPLHIRDKVKETIHHMQKIYET	not soluble
MSLSAELLLNVTPSETRVAMIEGGILQEIHIEREAKRGIVGNIYKGKVSRVLPGMQAAFVDIGLDKAAFLHASDIVPHTECVAESEKQQFQVRDISELVRQGQDIVVQVVKDPLGTKGARLTTDITLPSRYLVFMPGASHVGVSQRIESEAERERLKKIVSHYCDEHGGFIIRTAAEGANEKELTQDAAFLKRLWSKVIERRSKYKNRSMLYGELGLAQRILRDFVGTELTKILIDSRQEFENLKEFTSEYVPELTAKLELYHGDKPIFDMYDTENEIQRSLERKVELKSGGYLIIDQTEAMTTIDINTGAFVGRRNLEETIFNTNIEATQAIARQLRLRNLGGIIIIDFIDMASDEHRKRVLTSLETALMKDRVKTNINGFTQLGLVEMTRKRTRESIEHVLCSTCPTCEGRGSVKTVETVCFEILREITRVNRAYDADKFVVYASPAVADTLQGEESHALAELEVFIGKEVRIQAEPLYNQEQFDVVMMEGGSHHHHHH	soluble
